Experimental data: publication PMC10266124 (mAbs, 2023)

Legend:
Test in all cases: electrochemiluminescence
[1] = biological target: SARS-CoV-2 spike protein, Delta *2 (B.1.617.2; AY.4.2) (SARS-CoV-2, Delta B.1.617.2; AY.4.2 …, L452R)
[2] = biological target: SARS-CoV-2 spike protein, Delta *1 (B.1.617.2; AY.4) (SARS-CoV-2, Delta B.1.617.2; AY.4 …, L452R)
[3] = biological target: SARS-CoV-2 spike protein, Delta *3 (B.1.617.2; AY.3; AY.5; AY.6; AY.7; AY.14) (SARS-CoV-2, Delta (B.1.617.2; AY.3; …, L452R)
[4] = biological target: SARS-CoV-2 spike protein, Gamma (P.1) (SARS-CoV-2, Gamma (P.1), E484K)

B1: mAb03 (imdevimab) (antibody, V domains shown)
VH: QVQLVESGGGVVQPGRSLRLSCAASGFTFSNYAMYWVRQAPGKGLEWVAVISYDGSNKYYADSVKGRFTISRDNSKNTLYLQMNSLRTEDTAVYYCASGSDYGDYLLVYWGQGTLVTVSS
VL: QSALTQPASVSGSPGQSITISCTGTSSDVGGYNYVSWYQQHPGKAPKLMIYDVSKRPSGVSNRFSGSKSGNTASLTISGLQSEDEADYYCNSLTSISTWVFGGGTKLTVL
- relative binding (% of that to Wuhan spike, from AUCs) [1]: > 80%
- relative binding (% of that to Wuhan spike, from AUCs) [2]: > 80%
- relative binding (% of that to Wuhan spike, from AUCs) [3]: > 80%

B2: mAb21 (S2A4) (antibody, V domains shown)
VH: EVQLVESGGGLVQPGGSLRLSCAASGFTFSSYWMNWVRQAPGKGLEWVANIKQDGSEKYYVDSVKGRFTISRDNAKNSLFLQMNSLRAEDTAVYYCARVWWLRGSFDYWGQGTLVTVSS
VL: NFMLTQPHSVSESPGKTVTISCTGSSGSIASNYVQWYQQRPGSAPTTVIYEDNQRPSGVPDRFSGSIDSSSNSASLTISGLKTEDEADYYCQSYDSSNHVVFGGGTKLTVL
- relative binding (% of that to Wuhan spike, from AUCs) [1]: > 80%
- relative binding (% of that to Wuhan spike, from AUCs) [2]: > 80%
- relative binding (% of that to Wuhan spike, from AUCs) [3]: > 80%

B3: mAb26 (4A8) (antibody, V domains shown)
VH: EVQLVESGAEVKKPGASVKVSCKVSGYTLTELSMHWVRQAPGKGLEWMGGFDPEDGETMYAQKFQGRVTMTEDTSTDTAYMELSSLRSEDTAVYYCATSTAVAGTPDLFDYYYGMDVWGQGTTVTVSS
VL: EIVMTQSPLSSPVTLGQPASISCRSSQSLVHSDGNTYLSWLQQRPGQPPRLLIYKISNRFSGVPDRFSGSGAGTDFTLKISRVEAEDVGVYYCTQATQFPYTFGQGTKVDIK
- relative binding (% of that to Wuhan spike, from AUCs) [4]: ≥ 20%

B4: mAb27 (H014) (antibody, V domains shown)
VH: EVQLVQSGAEVKKPGATVKISCKVSGYSFSNYYIHWVKQAPGKSLEWIGYIDPFNGGTSDNLKFKGAATLTADTSTDTAYMELSSLRSEDTAVYYCARSEYDPYYVMDYWGQGTTVTVSS
VL: IVLTQSPFQSVSPKEKVTITCRASQSISSNLHWYQQKPDQSPKLLIKYASQSISGIPSRFSGSGSGTDFTLTINSLEAEDFGIYFCQQTNFWPYIFGQGTKLEIL
- relative binding (% of that to Wuhan spike, from AUCs) [1]: > 80%
- relative binding (% of that to Wuhan spike, from AUCs) [2]: > 80%
- relative binding (% of that to Wuhan spike, from AUCs) [3]: > 80%
